Assay results: the supplement of paper PMC9112550, “Optimization of the antimicrobial peptide Bac7 by deep mutational scanning” (BMC Biology, 2022)

test system: Escherichia coli TOP10; assay: shrunken log2 fold change of peptide-encoding DNA abundance (4.5 h post-induction vs induction); higher = less antimicrobial activity (less host growth inhibition); conditions: time post-induction: 4.5 h; library: site-saturation at positions 5, 18, 19, 20
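Note: peptides expressed intracellularly from a pBAD plasmid library in pooled LB shake-flask culture, induced with 0.3% L-arabinose, DNA abundance read by NGS, three biological replicates, DESeq2 with apeglm shrinkage.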

Row | Sequence | shrunken log2 fold change
1 | RRIRGRPPRLPRPRPRPCCLPRP | 0.429
2 | RRIRGRPPRLPRPRPRPCEVPRP | 0.0371
3 | RRIRGRPPRLPRPRPRPCFPPRP | 0.309
4 | RRIRGRPPRLPRPRPRPCGCPRP | 1.09
5 | RRIRGRPPRLPRPRPRPCHPPRP | -0.119
6 | RRIRGRPPRLPRPRPRPCKRPRP | 0.0886
7 | RRIRGRPPRLPRPRPRPCLFPRP | 0.346
8 | RRIRGRPPRLPRPRPRPCLWPRP | 0.426
9 | RRIRGRPPRLPRPRPRPCMDPRP | 0.714
10 | RRIRGRPPRLPRPRPRPCMVPRP | 0.304
11 | RRIRGRPPRLPRPRPRPCQRPRP | 0.014
12 | RRIRGRPPRLPRPRPRPCSEPRP | 0.0744
13 | RRIRGRPPRLPRPRPRPCSFPRP | 0.2
14 | RRIRGRPPRLPRPRPRPCTPPRP | 0.337
15 | RRIRGRPPRLPRPRPRPCVLPRP | 0.158
16 | RRIRGRPPRLPRPRPRPCYEPRP | 0.219
17 | RRIRGRPPRLPRPRPRPCYQPRP | 0.219
18 | RRIRGRPPRLPRPRPRPCYYPRP | -0.00676
19 | RRIRGRPPRLPRPRPRPDARPRP | 0.34
20 | RRIRGRPPRLPRPRPRPDCMPRP | 0.909
21 | RRIRGRPPRLPRPRPRPDDTPRP | 0.944
22 | RRIRGRPPRLPRPRPRPDEEPRP | 1.76
23 | RRIRGRPPRLPRPRPRPDENPRP | 0.987
24 | RRIRGRPPRLPRPRPRPDFCPRP | 2.03
25 | RRIRGRPPRLPRPRPRPDGGPRP | 0.468

Row | Sequence | shrunken log2 fold change
26 | RRIRGRPPRLPRPRPRPDGKPRP | 0.0293
27 | RRIRGRPPRLPRPRPRPDGPPRP | 0.155
28 | RRIRGRPPRLPRPRPRPDHWPRP | 0.186
29 | RRIRGRPPRLPRPRPRPDIRPRP | 0.454
30 | RRIRGRPPRLPRPRPRPDKAPRP | -0.00124
31 | RRIRGRPPRLPRPRPRPDKEPRP | 0.208
32 | RRIRGRPPRLPRPRPRPDKFPRP | 0.0879
33 | RRIRGRPPRLPRPRPRPDLNPRP | 0.843
34 | RRIRGRPPRLPRPRPRPDNIPRP | 0.119
35 | RRIRGRPPRLPRPRPRPDPKPRP | 0.649
36 | RRIRGRPPRLPRPRPRPDPWPRP | 0.53
37 | RRIRGRPPRLPRPRPRPDQKPRP | 0.0127
38 | RRIRGRPPRLPRPRPRPDQWPRP | 0.665
39 | RRIRGRPPRLPRPRPRPDRHPRP | 0.191
40 | RRIRGRPPRLPRPRPRPDRNPRP | 0.0753
41 | RRIRGRPPRLPRPRPRPDSVPRP | 0.704
42 | RRIRGRPPRLPRPRPRPDTCPRP | 0.131
43 | RRIRGRPPRLPRPRPRPDTFPRP | 0.43
44 | RRIRGRPPRLPRPRPRPDWAPRP | 1.22
45 | RRIRGRPPRLPRPRPRPEAQPRP | 1.61
46 | RRIRGRPPRLPRPRPRPECGPRP | 1.71
47 | RRIRGRPPRLPRPRPRPECHPRP | 1.62
48 | RRIRGRPPRLPRPRPRPEDKPRP | 1.23
49 | RRIRGRPPRLPRPRPRPEDTPRP | 1.58
50 | RRIRGRPPRLPRPRPRPEEAPRP | 2.32

Row | Sequence | shrunken log2 fold change
51 | RRIRGRPPRLPRPRPRPEEEPRP | 0.107
52 | RRIRGRPPRLPRPRPRPEEPPRP | 0.106
53 | RRIRGRPPRLPRPRPRPEETPRP | 1.51
54 | RRIRGRPPRLPRPRPRPEGAPRP | 1.49
55 | RRIRGRPPRLPRPRPRPEGHPRP | 1.8
56 | RRIRGRPPRLPRPRPRPEGTPRP | 1.55
57 | RRIRGRPPRLPRPRPRPEIWPRP | 1.34
58 | RRIRGRPPRLPRPRPRPEKAPRP | 0.144
59 | RRIRGRPPRLPRPRPRPEKCPRP | 0.599
60 | RRIRGRPPRLPRPRPRPELLPRP | 0.334
61 | RRIRGRPPRLPRPRPRPEMGPRP | 1.37
62 | RRIRGRPPRLPRPRPRPEMIPRP | 1.92
63 | RRIRGRPPRLPRPRPRPENMPRP | 0.325
64 | RRIRGRPPRLPRPRPRPEQYPRP | -0.183
65 | RRIRGRPPRLPRPRPRPERNPRP | 0.855
66 | RRIRGRPPRLPRPRPRPERWPRP | 1.19
67 | RRIRGRPPRLPRPRPRPESEPRP | 2
68 | RRIRGRPPRLPRPRPRPETQPRP | 2.49
69 | RRIRGRPPRLPRPRPRPETYPRP | 0.569
70 | RRIRGRPPRLPRPRPRPEVNPRP | 1.62
71 | RRIRGRPPRLPRPRPRPEYEPRP | 0.165
72 | RRIRGRPPRLPRPRPRPEYQPRP | 0.416
73 | RRIRGRPPRLPRPRPRPFCCPRP | 0.522
74 | RRIRGRPPRLPRPRPRPFDLPRP | -0.24
75 | RRIRGRPPRLPRPRPRPFDSPRP | 0.0127

Row | Sequence | shrunken log2 fold change
76 | RRIRGRPPRLPRPRPRPFELPRP | 0.0951
77 | RRIRGRPPRLPRPRPRPFEYPRP | 0.0664
78 | RRIRGRPPRLPRPRPRPFFEPRP | 0.428
79 | RRIRGRPPRLPRPRPRPFGTPRP | 0.196
80 | RRIRGRPPRLPRPRPRPFGWPRP | 0.741
81 | RRIRGRPPRLPRPRPRPFHNPRP | -0.388
82 | RRIRGRPPRLPRPRPRPFHVPRP | -0.0412
83 | RRIRGRPPRLPRPRPRPFKSPRP | 0.08
84 | RRIRGRPPRLPRPRPRPFKVPRP | -0.14
85 | RRIRGRPPRLPRPRPRPFLKPRP | 0.186
86 | RRIRGRPPRLPRPRPRPFLVPRP | -0.0616
87 | RRIRGRPPRLPRPRPRPFRCPRP | 0.0939
88 | RRIRGRPPRLPRPRPRPFRLPRP | -0.194
89 | RRIRGRPPRLPRPRPRPFSHPRP | -0.153
90 | RRIRGRPPRLPRPRPRPFTGPRP | -0.186
91 | RRIRGRPPRLPRPRPRPFVCPRP | 0.327
92 | RRIRGRPPRLPRPRPRPFVIPRP | 0.215
93 | RRIRGRPPRLPRPRPRPFWKPRP | 0.0889
94 | RRIRGRPPRLPRPRPRPFYDPRP | 0.0844
95 | RRIRGRPPRLPRPRPRPFYHPRP | -0.102
96 | RRIRGRPPRLPRPRPRPFYLPRP | -0.0695
97 | RRIRGRPPRLPRPRPRPFYRPRP | -0.26
98 | RRIRGRPPRLPRPRPRPGCFPRP | 1.1
99 | RRIRGRPPRLPRPRPRPGDLPRP | 2.41
100 | RRIRGRPPRLPRPRPRPGDWPRP | 1.34

Row | Sequence | shrunken log2 fold change
101 | RRIRGRPPRLPRPRPRPGDYPRP | 0.199
102 | RRIRGRPPRLPRPRPRPGFIPRP | 0.0369
103 | RRIRGRPPRLPRPRPRPGHGPRP | 0.323
104 | RRIRGRPPRLPRPRPRPGHVPRP | 0.204
105 | RRIRGRPPRLPRPRPRPGIIPRP | 0.0469
106 | RRIRGRPPRLPRPRPRPGIWPRP | 0.758
107 | RRIRGRPPRLPRPRPRPGKDPRP | 0.18
108 | RRIRGRPPRLPRPRPRPGKYPRP | -0.265
109 | RRIRGRPPRLPRPRPRPGLAPRP | 1.25
110 | RRIRGRPPRLPRPRPRPGLPPRP | 0.747
111 | RRIRGRPPRLPRPRPRPGMSPRP | 0.417
112 | RRIRGRPPRLPRPRPRPGNKPRP | -0.216
113 | RRIRGRPPRLPRPRPRPGPVPRP | 1.24
114 | RRIRGRPPRLPRPRPRPGQLPRP | 0.178
115 | RRIRGRPPRLPRPRPRPGQVPRP | 0.11
116 | RRIRGRPPRLPRPRPRPGRLPRP | 0.706
117 | RRIRGRPPRLPRPRPRPGTTPRP | 0.379
118 | RRIRGRPPRLPRPRPRPGTYPRP | -0.201
119 | RRIRGRPPRLPRPRPRPGVLPRP | 0.912
120 | RRIRGRPPRLPRPRPRPGWTPRP | 0.708
121 | RRIRGRPPRLPRPRPRPGYIPRP | -0.0887
122 | RRIRGRPPRLPRPRPRPHACPRP | -0.0193
123 | RRIRGRPPRLPRPRPRPHAGPRP | 1.06
124 | RRIRGRPPRLPRPRPRPHAPPRP | 1.23
125 | RRIRGRPPRLPRPRPRPHARPRP | 0.629

Row | Sequence | shrunken log2 fold change
126 | RRIRGRPPRLPRPRPRPHCYPRP | 0.0539
127 | RRIRGRPPRLPRPRPRPHDAPRP | 0.00554
128 | RRIRGRPPRLPRPRPRPHDMPRP | -0.204
129 | RRIRGRPPRLPRPRPRPHEWPRP | 0.116
130 | RRIRGRPPRLPRPRPRPHFRPRP | 0.199
131 | RRIRGRPPRLPRPRPRPHGSPRP | -0.0658
132 | RRIRGRPPRLPRPRPRPHGTPRP | 0.331
133 | RRIRGRPPRLPRPRPRPHHIPRP | -0.525
134 | RRIRGRPPRLPRPRPRPHHYPRP | -0.524
135 | RRIRGRPPRLPRPRPRPHICPRP | -0.0626
136 | RRIRGRPPRLPRPRPRPHKHPRP | 0.0984
137 | RRIRGRPPRLPRPRPRPHKQPRP | 0.0331
138 | RRIRGRPPRLPRPRPRPHLCPRP | 0.58
139 | RRIRGRPPRLPRPRPRPHLKPRP | 0.378
140 | RRIRGRPPRLPRPRPRPHNAPRP | 0.0947
141 | RRIRGRPPRLPRPRPRPHNIPRP | -0.386
142 | RRIRGRPPRLPRPRPRPHPHPRP | 0.399
143 | RRIRGRPPRLPRPRPRPHPWPRP | 0.345
144 | RRIRGRPPRLPRPRPRPHQKPRP | 0.0462
145 | RRIRGRPPRLPRPRPRPHSFPRP | 2.05
146 | RRIRGRPPRLPRPRPRPHTDPRP | 0.103
147 | RRIRGRPPRLPRPRPRPHTNPRP | 0.221
148 | RRIRGRPPRLPRPRPRPHTWPRP | -0.0293
149 | RRIRGRPPRLPRPRPRPHVRPRP | 0.427
150 | RRIRGRPPRLPRPRPRPHVYPRP | 0.469
